Test: soluble fraction after stress (log2 fold change); higher = more stays soluble; pooled small domains, quantitative proteomics
Settings: stress: 75 degC
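Note: 20 min heating vs room temperature control held 20 min.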

Row | Sequence | soluble fraction (log2)
1 | HMDEEEKGEVEVPNLIGLTRKEAKKTLEEEGLLIETKESLKTNLDDEYEKIKSQLPKAGIKIKQGSTVYVD | 0.154
2 | HMDEGQEHYVKETDLPFYSEADPASSVIFPLVLNQKLIEKERKDDWIRALEPTTGLVGWVLLKSLSPQQLS | -0.0643
3 | HMDEIELLLQDAIQKLPEKQRMVFTLRYYDNLPYEEISKILDMSVSTLKTNYHYAKSKIEQYILDHS | -1.64
4 | HMDEKPPHEALSNREFQVLQLLAQGRSVGQIAQQLTLSANTISTYRARIFDKLGLHNPADLFSYAARHRLT | -1.19
5 | HMDELNFGNFEGTRIFVQRTARKKSIALSIRDGTIVILAPRHIPNQEIQELITTNTDWIRAKLSQHAETKR | -3.21
6 | HMDELVYVPNITGKTVEEARTELQKRDLGLNIAGHQFSDEFGKGRIISQDPAAGSRLKVNRSISVIVSSGQ | 0.0849
7 | HMDENVVLRKVAREAFVIEYVRGIRAIDPGIGGPKLWLMYKREFGDNDTVGRDTFEDILDRNNLKVRI | -4.06
8 | HMDEPADVAIFDGFRQMSEDELKKLYESLNLAMTFKDFLHIQNYFKNEENREPSVTEIRVLDTYWSDH | 0.0441
9 | HMDEPVDRLSPREQEVLALMAEGRSNAAIAHRLSITEKAVAKHINSIFTKLDLPLDEDDHRRVRAVLAWLR | -1.33
10 | HMDESIPVITYKDSVYANPKAFADAHKLPYKSLHNALSKARKEGKVRFMYKQYNFHLDNNGYIVAVS | -1.22
11 | HMDESLLDYALREIKARIQNGTYPPGTKLSTQEISDSLGISRTPVVAAINRLVAQGVAEAIPRRGTIVAR | -0.19
12 | HMDETFTITFDPNGGTLNGSKTKTVSLGDIVYGKLPTASKTGYSFIGWFTEKEGGEQISSATKIIASDLTL | 0.0518
13 | HMDETPESIFAKANELYPKYIKYFYTEQEYYSKVEEYINLYEFQKNSTYILGKDLEEFLEEYITNKQ | -1.61
14 | HMDEWDDGDKPKLKITLYADDDYYFASGFSKSSVSLSGSDGTVTSVSRSSSDTLIVYVTLDALD | 0.033
15 | HMDEYILTLDEVKELLKSKDYDDLKNVLKWSNKFQKDTIIQTAISEKVSDANVINIIKEITGQDITSLIV | -0.0278
16 | HMDEYTREQFVADMEEGRVREVTIHPNSEVPTGYIRVELANGADMKLYVTDIVEAEELVRSYGFDPPVRDV | 0.212
17 | HMDFDFHALGREIKRKRKDKGWTQEYLAQLLDRTPRSIMYMENRGQHPSLNILFKIATLLEISIDQFFF | -0.114
18 | HMDFDQELFDKIVEATMDEARAAMDTDDKNVREERWNKLIEHWHELFLEDYPEMDKYLEEITYKFQKNPAT | -0.662
19 | HMDFEVGTVKWFNTKKGYGFITRDQGEDIFVHFRNIKGQGRRSLSDGERVSFVVTHGDKGLQADQVSP | -1.25
20 | HMDFFTAAPEEDEIGKRIDVYIAEYKEELSRSRVQKLIENGLVTVNGKAVKSNYKLRKGDILEVEIPDPE | -0.0998
21 | HMDFGPDSAAPLADGSAPEGFDVKGNADSMLYHEPDGRWYDATVAEVWFRTAEAAQAAGFTKAGS | -0.119
22 | HMDFNNQLKRIRESNGLTQEQLAKILNVSRQSISSWEVGRNFPDLEMIVIISKEFNISLDQLIMG | -3.02
23 | HMDFQTDVFISRFAELKKESGETNKDLQDVFELSLSALINYQTGKRIPDIAFLHKLAQHFGVSADYLLGLS | -0.277
24 | HMDFRQALNTSADSDANKVALLESIVKGKYVSSTVNLLRRVITLRRGRSIDATLAAYSHYVSIR | 0.155
25 | HMDFSVTIKGTSFPVMVSLKKMKQVRLKVFPSGEIKLSAPVGTPEKWIVEYLNDKMSWIEEKMDLFVQ | -1.26
26 | HMDFTMSEIQTAMAALPRGYRTVVQLYLVDGYSHKEIAEMLGVDVNTSKSQLSRGRKQLQAFLAAMS | -0.152

Row | Sequence | soluble fraction (log2)
27 | HMDFYIVLGVDRAASVSDVKRAYRRLARKYHPDINPGDREAEAFFLRVTEAYETLIDPDRRQDYDVNG | -1.06
28 | HMDFYPARVKWFNKSKGFGFANIFKSNDDIFLHIETLKRSGLSDLETGEAIVLTVTEGPRGKMADTILTWD | -0.531
29 | HMDGDFGMNLDWQPSEHFPTLARQAGIPADHITAEAIAEFRSYWIGQGKAMTQYQWDHKLLTNLKATKTR | -1.19
30 | HMDGEAQTYVEYGKWFPADLPLEAVRQLADGVPVTKELVAALNPRRSEWEEIKAGLDKIGYPNELL | -0.0206
31 | HMDGEITLYKVVGYIKASDFDDKKNGFVIADDYITKRQAEDTMYEWKRKKTYPYLEIKEYKGKDPYK | 0.255
32 | HMDGLAEQLFNILREELESGDYKPGQKLMSESALAQKYGVSRLTVRAAIARLSALDYVETRNGEGSFVKKR | -1.78
33 | HMDGLDFIINENGKIANINEEGELLAKGENIMLGYYKDSISTNNTINNGWLHTGDIAKIDNDGFIYL | -0.0909
34 | HMDGMNEELYQKFFALVGNPDEGKRISQAKAAQALGYSSAVVSAYKNRTYNGNIKAFEDAVQAWLKREERR | 0.17
35 | HMDGPELYESMKAIVPDQLDRTIFLTGGAYTPRAQEFLARVPNQQMEKPFEFEALRSLLARLT | 0.128
36 | HMDGTEVTTEPPGAQVEYEGKQFGPTPARIPGLVAGKSLHITLPGYLEVKPKIKAVPKDGEPLSFTLTAI | -0.0613
37 | HMDGVEVVTKPAGAQIEFAGKSYGPSPVHIPGLVAGSQLILRLPGFQAATVRLRTAPDKSKALEYTLQPA | -0.278
38 | HMDGVLVYKEGMTVADMATGLGKTIAQVVMKLMQLGIMANQNQSVDRETVELVALDFGYELKD | -2.27
39 | HMDGVSAEAVKSHIKTLIDGEGAKILSDDTLVDLLNAKGFDIARRTVAKYREAMGIGSSVQRRRQKKMG | 0.00787
40 | HMDGYLQLASKKNELITQLKTPPKPKRLFKDFEDRVYLITEYKVFVVSIFQNEFRLRPVNKDDFYRYTT | 0.293
41 | HMDGYTAVDKAVSDQYYTKENQLYFVSMGNFFSLGAKKIEGADISSFQILTTEYARDLQHLYFNGKV | -0.224
42 | HMDHFFSKYDSIVNHTVQKKETLFGISKKYGLTINEVIKFNPGIQIDKLKRRSVLIIPLMKKN | -1.07
43 | HMDHKSALQELLAPRGLQPSYRLVEEAGPAHARVFTSEVSVDGVARGSGTGTTIKMSEQAAAREALASLG | 0.249
44 | HMDHKSQLQEWAQSTLGETPRYVTIAETGPDHDKELTVELIIGRKSYSIAKGKSKKQAEQSAARIALGLLM | -1.99
45 | HMDHKSSYWSVKEANLFPELLKQFGSQWSLISDKLGTKSTTMVRNYYQRNAAQLGWKSVVEEADFKRNA | -0.585
46 | HMDHTYKHIELTGSSEKGIEEAVQNALAKASESVQNMRWLEVTDTRGHIEDGRVAHWQVTVKVGFTL | 0.213
47 | HMDHVEDRMVLEVVLKKLTEEERRIVMLHAVSGLKHREIAKALDIPLSTVLSKYKRTLKKLEAYLMEME | -1.72
48 | HMDIADKLTKREFEIFIAIAMNKSRFDIANELGLSAKTVSNGLTVIKRKLNAVPSQFSAIAAKHGYIG | -2.68
49 | HMDIAYFSNAELNDAFIQFLNMRQEAGKQLNGYQIQILTEKLERVADTDEDRISAVKNAIAGGWSNFYPPK | -0.607
50 | HMDIDASEVRGIISQYINEPDGRVSYILETIQKKYRYLPEEAIRIVAQELEVPLTQLFGVATFYAAFSL | 0.188
51 | HMDIDLNTIKKITLDDIHAFLSYLTTTYHSKAATRARKASSIRVFFNYLSAKANLIEVNPAQNLETPKLD | 0.165
52 | HMDIEELLSRSTDRLSRQTEIRRLLADAQGRPNISSLARRFKVARRTVIRDLQELIRRGEVPPEIYPK | -1.1

Row | Sequence | soluble fraction (log2)
53 | HMDIEFSDELRTFIDEWSKKEGGLVMMLHRIQNEYGFIPRTAAEKLSLISGIPLARIYGVITFYHFFKT | -0.499
54 | HMDIGNKIKELRTEQKMTQSDLAERLGVTKSSISSYENGSRLPSYDILLKIARIFKVSTDILLG | -1.47
55 | HMDIGTRQRIIAAAMELFRQKGMDGMSMRELAERAGVNKGLLHYYFTTKEAIFREVFVHQVEM | -0.084
56 | HMDIIIEEGIDESLSTDDAILDLLGRASDAFSNAQKALLEGDLGSYQKLIEQAERLVKKATELLGENN | -0.377
57 | HMDIMNNILINRIKKILTEQNMSKADLSRLTGISNSSLSEYLNGKYEPKQDKIALIAKALHVSPAWLMGF | -1.22
58 | HMDINNTNFSRDVDNLLQNEEFIKWRIFRTKEWEDYWENFRKENPHMEDALQEAISRFNAVK | 0.264
59 | HMDINVDILPLLKTMTDTLRKVIELDIPFLKDARVQRVNSLDELLLRADITTAEKFRKVFEAYQIEADFGK | -0.976
60 | HMDIPDIGHNVRIEVDGHNGKTTHEGIILHPAAPNHITIKLANGYNASYKLEEIINIEILGELGDDSKI | -0.136
61 | HMDIPITFEQLPAKAQAFVKQYFKIEEIASVWRDDDIHDQDYKVYFNDGSEIEFYANGDWEEV | -0.827
62 | HMDIPTSAEAVRAYLASGFIKGIGEATARMLVDKFGAETLEIIKTEPMKLTKISGIGPKKAKMIHESYLEK | 0.12
63 | HMDIRLMPGTVLTREYQGIEHRVTVAQDGQYEFEGRRYPSLSMIAREITGTRWSGPLFFGVK | -1.09
64 | HMDISEIEKRLLDFLEMPRSRKEIAEHLGIRTISYAIQTYITPLIDKKLVKMTIPESPRSHSQQYVRIN | -1.92
65 | HMDISRMNLSQTERAVLSVLDSQPLHTEEIIASADLRAGAIHSALISLQLKGLIKQLPGNLYVK | -0.78
66 | HMDITKPKISFEPGEMVRVVDGPFNDFSGVVEEVNYEKSKVRVAVLIFGRSTPVELQFNQIEK | -1.37
67 | HMDITTIIADVPGPKTQIKVDIKNTSLHIFGGMNFKKEIDIGDNKEIINIKYINGTLTVKLKT | 0.231
68 | HMDIVGAINKIESMKQDRYLAMHPYSITHSADGYYRTYLPADDGKRKQIKKKSKSDLEKVVIDYWTKRS | -0.242
69 | HMDIVKVYTTARAGETLASVAKRTGVDVARLAQWNDIPLKRAKQKLKTGKALALWVQREHASAYSNAPP | -1.78
70 | HMDIVQLSEKINVMKMEIPAQAIGKTVLEVNFRARFDLNIIAIENGGKLVEVIKPDYVFREGDILFLSGS | -3.76
71 | HMDIYENIDKELSKQGKSRRKLAIAAGIPPSTFQSMMERKRGLSVENLRKIAEVLNLKWYDLL | -0.985
72 | HMDIYKKFIIPATYFGSRLDHVLSELLPELSRSKIQNMIKQNLVMINGNHAAQKQKVVGDEEIIIKDI | -0.483
73 | HMDKAALGQKLRQARLDKGYTQQSLSEKADIGEVYLSEIERGLKMPSMNLFIKLITALDISADYILR | -2.94
74 | HMDKDTFGEFENVKLTEEEYNKLVEKLGENNTKLMIEELSTGIASKGYKYKSHYATILSWSRRRVTKLQER | 0.0858
75 | HMDKEIKILKEKRLDDVQQAIRELSPQKRRVVEMKLYHNSTNQEVADKLAISVNTVKSLYTSALHDLRRIL | -0.953
76 | HMDKESQTMFRLLTGVSGVGPKVGLAILSVLSPDRVVLAISAGDHKAFTAASGVGPKLGQRIVLELKDKVG | -3.07

Source: the domain aggregation screens of Martell et al. (2025)
